Measurements as given in patent publication US20220041723A1 (BIOINVENT INTERNATIONAL, published 2022).
Changes are numbered by the printed parent chain.

B1: 5-B07 (antibody, V domains shown)
VH: EVQLLESGGGLVQPGGSLRLSCAASGFTFSSYSMNWVRQAPGKGLEWVSAISGSGGSTYYADSVKGRFTISRDNSKNTLYLQMNSLRAEDTAVYYCARDRVEMNQWLADWGQGTLVTVSS
VL: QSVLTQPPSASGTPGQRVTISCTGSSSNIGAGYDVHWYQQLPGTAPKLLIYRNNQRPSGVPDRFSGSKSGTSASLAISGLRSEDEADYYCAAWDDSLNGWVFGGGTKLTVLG
notes: also called 5-B07 (human IgG format)
B2: m5-B07 (antibody clone 5-B07 in mIgG2a format) (antibody, V domains shown)
VH: B1 VH
VL: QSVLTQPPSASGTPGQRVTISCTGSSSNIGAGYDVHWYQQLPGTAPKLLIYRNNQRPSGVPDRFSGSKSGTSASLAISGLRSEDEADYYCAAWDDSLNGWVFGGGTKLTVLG
notes: also called 5-B07 in mouse IgG2a format; m5-B07 mAb
B3: 2-C06 (antibody, V domains shown)
VH: EVQLLESGGGLVQPGGSLRLSCAASGFTFSSYAMSWVRQAPGKGLEWVSGISGSGGYIHYADSVKGRFTISRDNSKNTLYLQMNSLRAEDTAVYYCATYSSGLHDAFDIWGQGTLVTVSS
VL: QSVLTQPPSASGTPGQRVTISCTGSSSNIGAGYDVHWYQQLPGTAPKLLIYDNNKRPSGVPDRFSGSKSGTSASLAISGLRSEDEADYYCAAWDDSLNGWVFGGGTKLTVLG
notes: also called 2-006
B4: 4-E03 (antibody, human IgG1, lambda, V domains shown)
VH: EVQLLESGGGLVQPGGSLRLSCAASGFTFSDYYMSWVRQAPGKGLEWVSGISWSSRDKGYADSVKGRFTISRDNSKNTLYLQMNSLRAEDTAVYYCTTDLARYWGQGTLVTVSS
VL: B3 VL with D52G, N54D, K55N, A92V, W100V
notes: also called 4-E03 mAb; 4-E03 monoclonal antibody
B5: 2-F09 (antibody, V domains shown)
VH: EVQLLESGGGLVQPGGSLRLSCAASGFTFKAYSMSWIRQAPGKGLEWVSGISNTGGSTDFADSVKGRFTISRDNSKNTLYLQMNSLRAEDTAMYYCARLGYSGYDDRGMDVWGQGTLVTVSS
VL: QSVLTQPPSASGTPGQRVTISCSGSSSNIGSNYVYWYQQLPGTAPKLLIYGNSNRPSGVPDRFSGSKSGTSASLAISGLRSEDEADYYCQSYDSSLSGPVVFGGGTKLTVLG

Key:
[1] = molecular target: T1, recombinant human CTLA-4-Fc protein (R&D Systems) (human, UniProt P16410 37-162); experiment: competitive flow cytometry: soluble rhCTLA-4-Fc blocks staining of activated human CD4+ T cells
T1 construct: also called rhCTLA-4-Fc; human CTLA-4 protein; not shown: Fc part of the bought fusion protein, not described

[2] = molecular target: T2, human CTLA-4 expressed on cells (293T cells stably transfected with human CTLA-4); in vitro-activated human … (human, UniProt P16410 36-223); experiment: flow cytometry on hCTLA-4-transfected 293T cells
T2 construct: whole, on cells; also called hCTLA-4

[3] = molecular target: T3, recombinant human CD28-Fc protein (R&D Systems) (human, UniProt P10747 19-152); experiment: ELISA, CD28-Fc coated at 1 pmol/well
T3 construct: also called human CD28 protein; not shown: Fc part of the bought fusion protein, not described

[4] = molecular target: T4, recombinant mouse CTLA-4-Fc protein (R&D Systems) (mouse, UniProt P09793 36-162); experiment: ELISA, mouse CTLA-4-Fc coated at 0.3 pmol/well, IgG titrated
T4 construct: not shown: Fc part of the bought fusion protein, not described

[5] = molecular target: T5, recombinant mouse CD28-Fc protein (R&D Systems) (mouse, UniProt P31041 20-149); experiment: ELISA, mouse CD28-Fc coated at 0.3 pmol/well
T5 construct: not shown: Fc part of the bought fusion protein, not described

[6] = molecular target: T6, recombinant mouse CTLA-4-Fc protein (Sino Biological Inc.) (mouse, UniProt P09793 36-162); experiment: ligand blocking ELISA on coated mouse CTLA-4-Fc
T6 construct: also called murine CTLA-4; not shown: Fc part of the bought fusion protein, not described

[7] = molecular target: T1, recombinant human CTLA-4-Fc protein …; experiment: ELISA, CTLA-4-Fc coated, IgG titrated
[8] = molecular target: T1, recombinant human CTLA-4-Fc protein …; experiment: ELISA, CTLA-4-Fc coated at 1 pmol/well, IgG titrated

Row | Binder | binding result [1] | binding result [2] | binding result [3] | binding result [4] | binding result [5] | binding result [6] | binding result [7] | binding result [8]
1 | B1 | binds | binds | no binding (tested: titrated 66 nM to 0.3 pM) | binds | no binding (tested: titrated 66 nM to 0.3 pM) |  |  | 
2 | B2 |  |  |  |  |  | binds |  | 
3 | B3 |  | binds | no binding (tested: titrated 66 nM to 0.3 pM) |  |  |  | binds | 
4 | B4 |  | binds | no binding (tested: titrated 66 nM to 0.3 pM) |  |  |  | binds | 
5 | B5 |  | binds |  |  |  |  |  | binds
